Reference: PMC6548965, “Aptameric Probe Specifically Binding Protein Heterodimer Rather Than Monomers”

Biological target: IAP-PLAP alkaline phosphatase heterodimer (Homo sapiens (Human), UniProt P09923;P05187 20-503;23-506, GPI-anchored, glycosylated)
Experiment: flow; LoVo cells, binding buffer, 4 C
Conditions: copies: 1;1; label: FITC or AF647

Sequence of IAP-PLAP alkaline phosphatase heterodimer (P09923 20-503, chain 1 of 2): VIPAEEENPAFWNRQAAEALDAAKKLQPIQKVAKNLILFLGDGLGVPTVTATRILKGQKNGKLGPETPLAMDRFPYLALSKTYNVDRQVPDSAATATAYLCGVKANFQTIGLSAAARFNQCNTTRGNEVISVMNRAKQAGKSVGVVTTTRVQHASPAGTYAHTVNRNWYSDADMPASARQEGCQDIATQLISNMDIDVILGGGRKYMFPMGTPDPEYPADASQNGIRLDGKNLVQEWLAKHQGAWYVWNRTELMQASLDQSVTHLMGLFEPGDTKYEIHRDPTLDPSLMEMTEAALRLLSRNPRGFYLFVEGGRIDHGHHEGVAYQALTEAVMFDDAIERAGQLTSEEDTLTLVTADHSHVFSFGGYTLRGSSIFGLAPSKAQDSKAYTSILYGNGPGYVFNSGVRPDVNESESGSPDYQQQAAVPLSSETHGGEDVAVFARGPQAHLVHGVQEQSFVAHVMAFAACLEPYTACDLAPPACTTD
Sequence of IAP-PLAP alkaline phosphatase heterodimer (P05187 23-506, chain 2 of 2): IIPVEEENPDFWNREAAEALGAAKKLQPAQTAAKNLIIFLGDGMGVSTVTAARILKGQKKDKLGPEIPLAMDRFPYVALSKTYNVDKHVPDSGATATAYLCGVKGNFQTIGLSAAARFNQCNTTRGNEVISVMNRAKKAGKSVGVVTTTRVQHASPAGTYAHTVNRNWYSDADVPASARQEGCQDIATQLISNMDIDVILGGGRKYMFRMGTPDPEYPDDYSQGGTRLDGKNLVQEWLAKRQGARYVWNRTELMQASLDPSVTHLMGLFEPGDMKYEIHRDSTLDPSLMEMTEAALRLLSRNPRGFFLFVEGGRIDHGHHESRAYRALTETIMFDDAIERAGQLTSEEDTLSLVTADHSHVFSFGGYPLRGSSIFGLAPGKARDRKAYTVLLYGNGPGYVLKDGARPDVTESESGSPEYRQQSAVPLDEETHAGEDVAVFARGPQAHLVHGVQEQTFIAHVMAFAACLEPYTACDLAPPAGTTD

B1: BG2c (ssDNA)
DNA: TAGGGGTCGGTGTGGGTGGTTATGATTGGC
- Kd: 9.3 ± 1.6 nM

B2: BG4 (ssDNA)
DNA: TAAAAAATAGGGGTCGGTGTGGGTGGTTATGATTGGCTTTTTTA
- Kd: 11.5 ± 2.3 nM
